Results from paper PMC11997583.

Key:
[1] = Rad51/γH2AX co-staining after Zeocin, U2OS; conditions: glycan lost; control: YTHDC1-WT rescue after siYTHDC1
[2] = neutral comet assay after Zeocin; conditions: glycan lost; control: YTHDC1-WT rescue after siYTHDC1
[3] = GFP foci count after Zeocin or IR, U2OS; conditions: glycan lost; control: GFP-YTHDC1-WT
[4] = GFP/γH2AX colocalisation foci after damage, U2OS; conditions: glycan lost; control: GFP-YTHDC1-WT, no inhibitor
[5] = chromatin fractionation, anti-Flag blot, Zeocin, 293T; conditions: glycan lost; control: YTHDC1-WT
[6] = FRAP of GFP-YTHDC1 puncta, Zeocin vs untreated; conditions: glycan lost; control: GFP-YTHDC1-WT
[7] = FRAP of GFP-YTHDC1 puncta, basal conditions; conditions: glycan lost; control: GFP-YTHDC1-WT
[8] = CCK-8 assay, Zeocin doses and durations; conditions: glycan lost; control: YTHDC1-WT
[9] = γH2AX foci count after Zeocin release; conditions: glycan lost; control: GFP-YTHDC1-WT

| Substance | other: Rad51 recruitment to DSBs [1] | other: DSB repair kinetics [2] | localisation_or_trafficking [3] | localisation_or_trafficking [4] | localisation_or_trafficking [5] | other: Zeocin-induced change in FRAP rate [6] | other: condensate dynamics (FRAP recovery) [7] | other: cell survival after Zeocin [8] | other: persisting γH2AX foci after damage [9] |
| --- | --- | --- | --- | --- | --- | --- | --- | --- | --- |
| YTHDC1: S396A | decreases | decreases | decreases | decreases | abolishes | abolishes | increases | decreases | increases |
| YTHDC1: OSMI-1 |  |  |  | decreases |  |  |  |  |  |
